Measured values published in publication PMC5291321.
pKd: −log10 of the molar value.

Biological target: full-length Cbln1 (Cbln1FL) (human) (UniProt P23435)
Assay: ITC

Sequence of full-length Cbln1 (Cbln1FL) (human) (P23435 22-193): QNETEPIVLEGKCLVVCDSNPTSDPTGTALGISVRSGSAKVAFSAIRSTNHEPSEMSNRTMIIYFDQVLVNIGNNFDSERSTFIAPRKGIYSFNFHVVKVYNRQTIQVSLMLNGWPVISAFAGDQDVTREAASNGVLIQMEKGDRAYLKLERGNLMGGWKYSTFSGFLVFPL

Question: “β-neurexin-1 with spliced sequence #4 (β-NRX1(+4)) (domain or fragment)” was tested. Which pKd did it give?
Answer: The pKd was 7.36.

Question: And the stoichiometry N (β-NRX1(+4) per Cbln1 hexamer)?
Answer: The stoichiometry N (β-NRX1(+4) per Cbln1 hexamer) was 1.
